Assay results reported in publication PMC11696143, “A higher order PUF complex is central to regulation of C. elegans germline stem cells” (Nature Communications, 2024).
Substitutions are numbered along the chain they refer to. Numbers in names are those of the source. Where “and” joins values, the source holds several entries; their conditions need not be identical. Equal values may be shown once. Values belong to the binder of their own block, whether it stands above or below them.

Key:
[1] = target: T1, FBF-2 RBD+CT;LST-1 19-98 (Caenorhabditis elegans;Caenorhabditis …, UniProt Q09312;P91820 164-632;19-98, |); assay: EMSA; 10 uM LST-1 19-98; apparent Kd; EMSA: 5 nM RNA, 10 mM HEPES pH 7.4, 75 mM NaCl, 0.01% Tween 20, 0.1 mg/ml BSA, 0.1 mg/ml yeast tRNA, 2 mM DTT, 4 C overnight; settings: protein: recombinant;recombinant; tags: His6-SUMO, removed by Ulp1;His6-SUMO removed by Ulp1; GST removed by TEV when coexpressed; chain copies: 2;1; label: 3'-Cy5
T1 sequence 1: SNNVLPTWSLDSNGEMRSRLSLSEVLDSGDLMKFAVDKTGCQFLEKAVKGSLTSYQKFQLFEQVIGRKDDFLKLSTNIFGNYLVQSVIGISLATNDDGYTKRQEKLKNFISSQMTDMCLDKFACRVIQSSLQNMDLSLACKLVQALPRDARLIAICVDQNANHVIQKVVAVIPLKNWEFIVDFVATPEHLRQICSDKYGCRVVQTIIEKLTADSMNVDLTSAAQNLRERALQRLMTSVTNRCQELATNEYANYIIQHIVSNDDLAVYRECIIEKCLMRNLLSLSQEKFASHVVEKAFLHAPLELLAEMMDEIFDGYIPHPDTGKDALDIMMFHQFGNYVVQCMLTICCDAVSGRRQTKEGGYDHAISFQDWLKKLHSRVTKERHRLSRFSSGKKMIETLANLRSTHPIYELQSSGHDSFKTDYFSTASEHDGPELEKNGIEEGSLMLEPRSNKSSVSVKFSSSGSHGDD
T1 sequence 2: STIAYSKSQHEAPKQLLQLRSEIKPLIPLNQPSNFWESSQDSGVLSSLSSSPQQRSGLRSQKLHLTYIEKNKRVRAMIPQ

[2] = target: T2, FBF-2 RBD;LST-1 19-98 (Caenorhabditis elegans;Caenorhabditis …, UniProt Q09312;P91820 164-575;19-98, |); assay: as above; settings: protein: recombinant;recombinant; tags: His-SUMO, removed by TEV;His6-SUMO removed by Ulp1; GST removed by TEV when coexpressed; chain copies: 2;1; label: 3'-Cy5
T2 sequence 1: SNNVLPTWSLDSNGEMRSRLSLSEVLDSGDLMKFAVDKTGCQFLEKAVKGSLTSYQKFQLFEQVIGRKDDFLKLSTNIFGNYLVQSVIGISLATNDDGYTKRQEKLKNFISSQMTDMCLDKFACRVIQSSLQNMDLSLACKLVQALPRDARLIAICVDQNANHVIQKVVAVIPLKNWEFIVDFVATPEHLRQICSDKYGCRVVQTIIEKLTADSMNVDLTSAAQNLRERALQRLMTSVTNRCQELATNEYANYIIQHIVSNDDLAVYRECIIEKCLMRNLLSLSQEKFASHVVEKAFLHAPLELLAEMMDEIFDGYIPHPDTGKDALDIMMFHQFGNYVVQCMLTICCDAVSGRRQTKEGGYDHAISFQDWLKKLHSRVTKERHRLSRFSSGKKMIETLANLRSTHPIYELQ
T2 sequence 2: T1 sequence 2

[3] = target: T3, LST-1 19-98 (Caenorhabditis elegans, UniProt P91820 19-98); assay: EMSA; 10 uM LST-1 19-98; nonspecific intermediate band, seen with FBF-2 present; EMSA: 5 nM RNA, 10 mM HEPES pH 7.4, 75 mM NaCl, 0.01% Tween 20, 0.1 mg/ml BSA, 0.1 mg/ml yeast tRNA, 2 mM DTT, 4 C overnight; settings: protein: recombinant; tags: His6-SUMO removed by Ulp1; GST removed by TEV when coexpressed; label: 3'-Cy5
T3 sequence: T1 sequence 2

[4] = target: T4, FBF-2 RBD+CT L610A (Caenorhabditis elegans, UniProt Q09312 164-632, L610A); assay: EMSA; apparent Kd, Hill fit; EMSA: 5 nM RNA, 10 mM HEPES pH 7.4, 75 mM NaCl, 0.01% Tween 20, 0.1 mg/ml BSA, 0.1 mg/ml yeast tRNA, 2 mM DTT, 4 C overnight; settings: protein: recombinant; label: 3'-Cy5
T4 sequence: T1 sequence 1 with L447A

[5] = target: T5, FBF-2 RBD+CT (Caenorhabditis elegans, UniProt Q09312 164-632); assay: as above; settings: protein: recombinant; tags: His6-SUMO, removed by Ulp1; label: 3'-Cy5
T5 sequence: T1 sequence 1

[6] = target: T6, FBF-2 RBD (Caenorhabditis elegans, UniProt Q09312 164-575); assay: as above; settings: protein: recombinant; tags: His-SUMO, removed by TEV; label: 3'-Cy5
T6 sequence: T2 sequence 1

[7] = target: T6, FBF-2 RBD; assay: X-ray crystallography; 2.2 A; EMSA: 5 nM RNA, 10 mM HEPES pH 7.4, 75 mM NaCl, 0.01% Tween 20, 0.1 mg/ml BSA, 0.1 mg/ml yeast tRNA, 2 mM DTT, 4 C overnight; settings: protein: recombinant; tags: His-SUMO, removed by TEV
[8] = target: T7, FBF-2 RBD;LST-1 19-98 S74C (Caenorhabditis elegans;Caenorhabditis …, UniProt Q09312;P91820 164-575;19-98, |S74C); assay: FRET; 2 uM FBF-2 RBD; higher FRET than S26C; EMSA: 5 nM RNA, 10 mM HEPES pH 7.4, 75 mM NaCl, 0.01% Tween 20, 0.1 mg/ml BSA, 0.1 mg/ml yeast tRNA, 2 mM DTT, 4 C overnight; settings: protein: recombinant;recombinant; tags: His-SUMO, removed by TEV;Cy5-maleimide on C74; chain copies: 2;1; label: 5'-Cy3
T7 sequence 1: T2 sequence 1
T7 sequence 2: T1 sequence 2 with S56C

[9] = target: T8, C. elegans FBF-2 RBD+CT (residues 164-632) (C. elegans, UniProt Q09312 164-632); assay: cell-based or functional assay
T8 sequence (looked up): T1 sequence 1

[10] = target: T8, C. elegans FBF-2 RBD+CT (residues …); assay: ITC; LST-1 variant (100-400 µM) titrated from the syringe into the cell with FBF-2 (10-30 µM); 20 °C; 20 mM HEPES pH 7.4, 150 mM NaCl, 0.5 mM TCEP; no RNA; one-site model; apparent constants; two technical replicates; settings: both partners purified
[11] = target: T9, C. elegans FBF-2 RBD (residues 164-575) (C. elegans, UniProt Q09312 164-575); assay: as above; settings: both partners purified
T9 construct: His-SUMO tag cleaved with TEV protease (the insert came from an earlier pGEX6p FBF-2 RBD construct); source: E. coli, purified as FBF-2 RBD+CT (Ni-NTA, heparin, Superdex 75); for SEC-MALS and cryo-EM coexpressed with GST-LST-1 19-98 in E. coli BL21-CodonPlus (DE3)-RIL and purified as a complex; not shown: His6-SUMO, N-terminal, cleaved
T9 sequence (looked up): T2 sequence 1

[12] = target: T8, C. elegans FBF-2 RBD+CT (residues …); assay: SEC-MALS; co-purified FBF-2 RBD+CT or RBD/LST-1 19-98 complex (~30 µM) with 29-nt gld-1 FBEa-FBEa* RNA on Superdex-200 10/300 GL; 20 mM HEPES pH 7.4, 150 mM NaCl, 2 mM DTT; settings: both partners purified
[13] = target: T9, C. elegans FBF-2 RBD (residues 164-575); assay: as above; settings: both partners purified
[14] = target: T9, C. elegans FBF-2 RBD (residues 164-575); assay: FRET or BRET; 2 µM unlabeled FBF-2 RBD pre-incubated with Cy5-labeled LST-1 19-98 (20, 40, 80 nM), then 20 nM 5'-Cy3 gld-1 FBEa-FBEa* RNA; room temperature; FRET from Cy3 on the RNA to Cy5 on LST-1; settings: both partners purified
[15] = target: T5, FBF-2 RBD+CT; assay: EMSA; up to 5 uM FBF-2; EMSA: 5 nM RNA, 10 mM HEPES pH 7.4, 75 mM NaCl, 0.01% Tween 20, 0.1 mg/ml BSA, 0.1 mg/ml yeast tRNA, 2 mM DTT, 4 C overnight; settings: protein: recombinant; tags: His6-SUMO, removed by Ulp1; label: 3'-Cy5

Binder: AUCAUGUGCCAUACAUCAUGUUGCCAUUU (ssRNA) [gld-1 FBEa-FBEa* (EMSA)]
Kd [1]: 0.109 ± 0.002 µM
Kd [2]: 0.107 ± 0.003 µM
binding result [3]: binds
Kd [4]: 0.08 ± 0.011 µM
Kd [5]: 0.435 ± 0.025 µM
Kd [6]: 0.131 ± 0.01 µM

Binder: CAUGUUGCCAU (ssRNA) [gld-1 FBEa* 11-nt (crystal)]
binding result [7]: binds

Binder: AUCAUGUGCCAUACAUCAUGUUGCCAUUU (ssRNA) [gld-1 FBEa-FBEa* (FRET)]
binding result [8]: binds

Binder: AUCAUGUGCCAUACAUCAACAUGCCAUUU (ssRNA) [FBEa-FBEa*m]
Kd [5]: 1.19 ± 0.009 µM
Kd [6]: 0.145 ± 0.004 µM

EMSA: RNA-binding affinity of FBF-2 RBD+CT for the 29-nt FBEa-FBEa* RNA with 10 µM LST-1 19-98 against without LST-1 [9]: 4 fold
Kd [10]: 1.1 µM and 1.9 µM
dH [10]: -61.9 kJ/mol and -45.1 kJ/mol
stoichiometry N [10]: 0.5 sites and 0.57 sites
Kd [11]: 0.48 µM and 0.52 µM
dH [11]: -139 kJ/mol and -157 kJ/mol
stoichiometry N [11]: 0.46 sites
B1: LST-1 peptide (residues 19-98) spanning PIM-A and PIM-B (domain or fragment, C. elegans, UniProt P91820 19-98, looked up)
chain: T1 sequence 2
notes: LST-1 (lateral signaling target 1), C. elegans, residues 19-98 of the N-terminal intrinsically disordered region; Codon-optimised synthetic cDNA in pSMT3; tag removed with Ulp1; also called LST-1^19–98; source: E. coli BL21-CodonPlus (DE3)-RIL, purified (Ni-NTA, heparin, Ni-NTA pass, Superdex 75)

stoichiometry N [12]: 2 FBF-2 per LST-1
stoichiometry N [13]: 2 FBF-2 per LST-1
B2: LST-1^19–98 from the GST fusion coexpressed with FBF-2 (domain or fragment, C. elegans, UniProt P91820 19-98, looked up)
chain: T1 sequence 2
notes: LST-1, C. elegans, residues 19-98; GST removed with TEV protease; also called GST-LST-1^19–98; not shown: GST, N-terminal, cleaved

Kd [10]: 24.1 µM and 46.2 µM
dH [10]: -46.3 kJ/mol and -48.3 kJ/mol
stoichiometry N [10]: 1.06 sites and 0.89 sites
Kd [11]: 1.46 µM and 1.54 µM
dH [11]: -50.8 kJ/mol and -52.5 kJ/mol
stoichiometry N [11]: 0.83 sites and 0.86 sites
B3: LST-1^19–98(B^m): K80A, L83A, Y85A (domain or fragment, C. elegans, UniProt P91820 19-98, looked up)
chain: T1 sequence 2 with K62A, L65A, Y67A
notes: LST-1, C. elegans, residues 19-98 with PIM-B mutated; PIM-A intact; also called LST-1 B^m; source: E. coli, purified by the same protocol as the wild-type LST-1 19-98

Kd [10]: 3.7 µM and 2.8 µM
dH [10]: -47.9 kJ/mol and -48.3 kJ/mol
stoichiometry N [10]: 1.02 sites and 0.98 sites
Kd [11]: 0.13 µM and 0.12 µM
dH [11]: -64.1 kJ/mol and -68.9 kJ/mol
stoichiometry N [11]: 1.15 sites and 1.05 sites
B4: LST-1^19–98(A^m): K32A, L35A (domain or fragment, C. elegans, UniProt P91820 19-98, looked up)
chain: T1 sequence 2 with K14A, L17A
notes: LST-1, C. elegans, residues 19-98 with PIM-A mutated; PIM-B intact; also called LST-1 A^m; source: E. coli, purified by the same protocol as the wild-type LST-1 19-98

binding result [14]: binds
B5: LST-1^19–98 S74C labeled with Cy5 (domain or fragment, C. elegans, UniProt P91820 19-98, looked up)
chain: T1 sequence 2 with S56C
modifications: Cy5 maleimide dye on C74
notes: LST-1, C. elegans, residues 19-98 with a cysteine in place of S74, five residues upstream of PIM-B; Probably made as the wild-type LST-1 19-98 (His6-SUMO, cleaved); also called C74-labeled LST-1^19–98; source: purified; expression not described for this mutant

Binder: AUCAACAGCCAUACAUCAACAUGCCAUUU (ssRNA) [FBEam-FBEa*m]
binding result [15]: no binding
